This is an account of results in patent publication US20210340516A1, “COMPOSITIONS CONTAINING ARGINASE 1 FOR THE TREATMENT OF NEUROVASCULAR AND RETINAL VASCULAR DISORDERS” (Augusta University Research Institute, Inc., priority 2020, published 2021).

Data set [1] has as its system primary rat retinal mixed neurons. Put plainly: Primary retinal mixed neurons subjected to OGD/R, LDH release assay. To be noted: 6 hours OGD and 18 hours reperfusion, ABH 100 μM at reoxygenation. A general note: Release of lactate dehydrogenase indicates damage to the cell membrane.
Method: Retinas from ten pups were collected and washed twice with ice-cold 1×PBS. They were digested with 0.5% trypsin for 3-4 min at 37° C., followed by trypsin inactivation with the culture medium, DMEM/F12 (Gibco, Grand Island, N.Y.) plus 10% FBS and 1% Penicillin-Streptomycin (P/S) solution (Invitrogen, Grand Island, N.Y.). The retina tissue was mechanically dissociated by pipetting several times until cells were dispersed. Cells were then filtered through a 40 μm nylon-mesh filter, collected by centrifugation at 1000 rpm for 10 min, re-suspended in culture medium, and plated in 6 or 12 well-cell culture plates (Corning, Corning, N.Y.) coated with Poly-D-lysine hydrobromide (PDL, Sigma) at a density of 0.5×10^6 cells/mL. The plates were maintained in a humidified CO2 incubator at 37° C. and 5% CO2. At days 1, 2, and 3 in vitro (DIV), half of the medium was aspirated and replaced with Neurobasal A medium containing 1×B-27 (GIBCO), 1× glutaMAX (GIBCO) and 1% P/S. Experiments were conducted at DIV 6.
The conditions of data set [2]: native enzyme, comparison; cited from earlier work.
The test system of data set [3] is mouse model of acute retinal ischemia. As to conditions: intravitreal injection (Fouda 2018); cited from earlier work.

In the case of `N[C@@H](CCCCB(O)O)C(=O)O` [ABH, 2(S)-amino-6-boronohexanoic acid, reference compound], in data set [1], the “cell death (LDH release)” value is “trend towards increased cell death”.

B1: native enzyme: native, non-PEGylated arginase, compared with PEG-A1 for half-life (protein, UniProt P05089 1-322, looked up)
Arginase-1: MSAKSRTIGIIGAPFSKGQPRGGVEEGPTVLRKAGLLEKLKEQECDVKDYGDLPFADIPNDSPFQIVKNPRSVGKASEQLAGKVAEVKKNGRISLVLGGDHSLAIGSISGHARVHPDLGVIWVDAHTDINTPLTTTSGNLHGQPVSFLLKELKGKIPDVPGFSWVTPCISAKDIVYIGLRDVDPGEHYILKTLGIKYFSMTEVDRLGIGKVMEETLSYLLGRKKRPIHLSFDVDGLDPSFTPATGTPVVGGLTYREGLYITEEIYKTGLLSGLDIMEVNPSLGKTPEEVTRTVNTAVAITLACFGLAREGNHKPIDYLNPPK
Take B1: the half-life in vivo entry in data set [2] is recorded as “a few minutes”.

B2: A1: arginase 1 given by intravitreal injection in an earlier study (Fouda 2018) (protein, UniProt P05089 1-322, looked up)
Arginase-1: MSAKSRTIGIIGAPFSKGQPRGGVEEGPTVLRKAGLLEKLKEQECDVKDYGDLPFADIPNDSPFQIVKNPRSVGKASEQLAGKVAEVKKNGRISLVLGGDHSLAIGSISGHARVHPDLGVIWVDAHTDINTPLTTTSGNLHGQPVSFLLKELKGKIPDVPGFSWVTPCISAKDIVYIGLRDVDPGEHYILKTLGIKYFSMTEVDRLGIGKVMEETLSYLLGRKKRPIHLSFDVDGLDPSFTPATGTPVVGGLTYREGLYITEEIYKTGLLSGLDIMEVNPSLGKTPEEVTRTVNTAVAITLACFGLAREGNHKPIDYLNPPK
Take B2: the “neuroprotection in acute retinal ischemia” value in data set [3] is on record as “showed neuroprotection”.
